From US10100120B2, “Antibody which specifically binds to human CRTH2” (KYOWA HAKKO KIRIN CO., LTD, priority 2015, dated 2018) come the findings set out here.

The test system of this experiment is differentiation-induced human mast cells. The experiment can be described thus: Reactivity against differentiation-induced human mast cells. Conditions: mast cells stimulated by IgE and crosslinking antibody; antibody 10 μg/mL; FIG. 14. Format: binding. On the procedure: Mast cells were prepared according to the method described in Nature Protocols 2006, 1(4), 2178 to 2183. The mast cells after 11 weeks from the start of differentiation induction were washed with SM and seeded in a 96-well plate such that each well had 5×10^4 cells, and PE anti-human CD203c (E-NPP3) Antibody (Biolegend Inc.), Brilliant Violet 421 (trademark) anti-human CD117 (c-kit) Antibody (Biolegend Inc.), and Anti-Human Fc epsilon Receptor I alpha (FcεR1) PE (eBioscience) were added thereto to cause a reaction at 4° C. for 1 hour. After the cells were washed again, the cells were suspended with SM, and the fluorescent intensity was analyzed by flow cytometry (BD Biosciences, FACS CantoII). […]
After the cells were washed, streptavidin, Alexa Fluor 647 conjugate (Molecular Probes) diluted with SM was added to wells to which biotin-labeled LV0HV1, hu19A2 v52, ch8B1 v1, ch3C12, or ch31A5 was added, goat anti-Rat IgG Alexa 647 (Molecular Probes) diluted with SM was added to wells to which BM16 was added, and goat anti-Mouse IgG Alexa 647 (Molecular Probes) diluted with SM was added to wells to which 301108 was added at a final concentration of 10 μg/mL to cause a reaction at 4° C. for 40 minutes. After the cells were washed again, the cells were suspended with SM, and the fluorescent intensity was analyzed by flow cytometry (BD Biosciences, FACS CantoII).

B1: LV0HV1: humanized Lym2 antibody, VL LV0 (SEQ ID NO: 33), VH HV1 (SEQ ID NO: 51) (antibody, V domains shown)
VH: EVQLVESGGGVVQPGRSLRLSCAASGFTFSNYYMAWVRQAPGKGLEWVATISYDGSSTYYRDSVKGRFTISRDNAKNSLYLQMNSLRAEDTATYYCARHRGYYYSGAGYFDYWGQGTMVTVSS
VL: DIVMTQTPLSLPVTPGESASISCRSSQSLEYSDGYTYLEWYLQKPGQSPQVLIYGVSNRFSGVPDRFSGSGSGTDFTLKISRVEAEDVGVYYCFQATHDPLTFGQGTKLEIK
For the molecule B1, the “reactivity against mast cells” value was “did not exhibit reactivity”.
